Source: patent US20240270846A1 (published 2024)

Target: T1, CD3 epsilon homodimer protein (UniProt P07766 23-126)
T1 construct: also called CD3 (CD3 epsilon)
Test: SPR, CD3e homodimer on chip;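 also: surface plasmon resonance at 25 degrees C, antibodies flowed as analyte over CD3 epsilon homodimer amine-coupled to a CM4 chip, running buffer HBS-EP+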
Method: An appropriate amount of CD3 epsilon homodimer protein was immobilized onto Sensor chip CM4 (GE Healthcare Japan Corp.) by the amine coupling method. Then, the antibody having an appropriate concentration was injected thereto as an analyte and allowed to interact with the CD3 epsilon homodimer protein on the sensor chip. Then, the sensor chip was regenerated by the injection of 10 mmol/L glycine-HCl (pH 1.5). The assay was conducted at 25 degrees C., and HBS-EP+(GE Healthcare Japan Corp.) was used as a running buffer. […] Each parameter was calculated using Biacore T200 Evaluation Software (GE Healthcare Japan Corp.).
Specifically, when the amount of the GLS3000-containing antibody bound was defined as X and the amount of the L chain one-amino acid altered form bound was defined as Y, a value of Z (ratio of amounts bound)=Y/X was used.

T1 sequence (P07766 23-126): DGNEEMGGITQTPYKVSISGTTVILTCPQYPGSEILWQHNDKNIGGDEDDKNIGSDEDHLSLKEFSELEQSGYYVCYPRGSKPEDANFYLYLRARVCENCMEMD

| Binder | ratio of amounts bound (altered form / unaltered GLS3000 antibody) |
| --- | --- |
| GLS3000 H27dP one-arm antibody (H chain CE115HA000) (antibody, human IgG1, kappa, L234A L235A, N297A, name in Kabat numbering, one-arm antibody) heavy: QVQLVESGGGVVQPGRSLRLSCAASGFTFSNAWMHWVRQAPGKGLEWVAQIKAKSNNYATYYAESVKGRFTISRDDSKNSLYLQMNSLKTEDTAVYYCRYVHYGAYYGVDAWGQGTTVTVSSASTKGPSVFPLAPSSKSTSGGTAALGCLVKDYFPEPVTVSWNSGALTSGVHTFPAVLQSSGLYSLSSVVTVPSSSLGTQTYICNVNHKPSNTKVDKKVEPKSCDKTHTCPPCPAPEAAGGPSVFLFPPKPKDTLMISRTPEVTCVVVDVSHEDPEVKFNWYVDGVEVHNAKTKPREEQYASTYRVVSVLTVLHQDWLNGKEYKCKVSNKALPAPIEKTISKAKGQPREPQVYTLPPSRCELTKNQVSLSCAVKGFYPSDIAVEWESNGQPENNYKTTPPVLDSDGSFFLVSKLTVDKSRWQQGNVFSCSVMHEALHNHYTQKSLSLSPDYKDDDDK EPKSSDKTHTCPPCPAPELLGGPSVFLFPPKPKDTLMISRTPEVTCVVVDVSHEDPEVKFNWYVDGVEVHNAKTKPREEQYNSTYRVVSVLTVLHQDWLNGKEYKCKVSNKALPAPIEKTISKAKGQPREPQVCTLPPSRDELTKNQVSLWCLVKGFYPSDIAVEWESNGQPENNYKTTPPVLDSDGSFFLYSKLTVDKSRWQQGNVFSCSVMHEALHNRYTQKSLSLSP light: DIVMTQSPLSLPVTPGEPASISCRSSQSLVPSNRNTYLHWYQQKPGQAPRLLIYKVSNRFSGVPDRFSGSGSGTDFTLKISRVEAEDVGVYYCGQGTQVPYTFGQGTKLEIKRTVAAPSVFIFPPSDEQLKSGTASVVCLLNNFYPREAKVQWKVDNALQSGNSQESVTEQDSKDSTYSLSSTLTLSKADYEKHKVYACEVTHQGLSSPVTKSFNRGEC | 0.24 |
| GLS3000 H27dQ one-arm antibody (H chain CE115HA000) (antibody, human IgG1, kappa, L234A L235A, N297A, name in Kabat numbering, one-arm antibody) heavy: QVQLVESGGGVVQPGRSLRLSCAASGFTFSNAWMHWVRQAPGKGLEWVAQIKAKSNNYATYYAESVKGRFTISRDDSKNSLYLQMNSLKTEDTAVYYCRYVHYGAYYGVDAWGQGTTVTVSSASTKGPSVFPLAPSSKSTSGGTAALGCLVKDYFPEPVTVSWNSGALTSGVHTFPAVLQSSGLYSLSSVVTVPSSSLGTQTYICNVNHKPSNTKVDKKVEPKSCDKTHTCPPCPAPEAAGGPSVFLFPPKPKDTLMISRTPEVTCVVVDVSHEDPEVKFNWYVDGVEVHNAKTKPREEQYASTYRVVSVLTVLHQDWLNGKEYKCKVSNKALPAPIEKTISKAKGQPREPQVYTLPPSRCELTKNQVSLSCAVKGFYPSDIAVEWESNGQPENNYKTTPPVLDSDGSFFLVSKLTVDKSRWQQGNVFSCSVMHEALHNHYTQKSLSLSPDYKDDDDK EPKSSDKTHTCPPCPAPELLGGPSVFLFPPKPKDTLMISRTPEVTCVVVDVSHEDPEVKFNWYVDGVEVHNAKTKPREEQYNSTYRVVSVLTVLHQDWLNGKEYKCKVSNKALPAPIEKTISKAKGQPREPQVCTLPPSRDELTKNQVSLWCLVKGFYPSDIAVEWESNGQPENNYKTTPPVLDSDGSFFLYSKLTVDKSRWQQGNVFSCSVMHEALHNRYTQKSLSLSP light: DIVMTQSPLSLPVTPGEPASISCRSSQSLVQSNRNTYLHWYQQKPGQAPRLLIYKVSNRFSGVPDRFSGSGSGTDFTLKISRVEAEDVGVYYCGQGTQVPYTFGQGTKLEIKRTVAAPSVFIFPPSDEQLKSGTASVVCLLNNFYPREAKVQWKVDNALQSGNSQESVTEQDSKDSTYSLSSTLTLSKADYEKHKVYACEVTHQGLSSPVTKSFNRGEC | 0.25 |
| GLS3000 H27dR one-arm antibody (H chain CE115HA000) (antibody, human IgG1, kappa, L234A L235A, N297A, name in Kabat numbering, one-arm antibody) heavy: QVQLVESGGGVVQPGRSLRLSCAASGFTFSNAWMHWVRQAPGKGLEWVAQIKAKSNNYATYYAESVKGRFTISRDDSKNSLYLQMNSLKTEDTAVYYCRYVHYGAYYGVDAWGQGTTVTVSSASTKGPSVFPLAPSSKSTSGGTAALGCLVKDYFPEPVTVSWNSGALTSGVHTFPAVLQSSGLYSLSSVVTVPSSSLGTQTYICNVNHKPSNTKVDKKVEPKSCDKTHTCPPCPAPEAAGGPSVFLFPPKPKDTLMISRTPEVTCVVVDVSHEDPEVKFNWYVDGVEVHNAKTKPREEQYASTYRVVSVLTVLHQDWLNGKEYKCKVSNKALPAPIEKTISKAKGQPREPQVYTLPPSRCELTKNQVSLSCAVKGFYPSDIAVEWESNGQPENNYKTTPPVLDSDGSFFLVSKLTVDKSRWQQGNVFSCSVMHEALHNHYTQKSLSLSPDYKDDDDK EPKSSDKTHTCPPCPAPELLGGPSVFLFPPKPKDTLMISRTPEVTCVVVDVSHEDPEVKFNWYVDGVEVHNAKTKPREEQYNSTYRVVSVLTVLHQDWLNGKEYKCKVSNKALPAPIEKTISKAKGQPREPQVCTLPPSRDELTKNQVSLWCLVKGFYPSDIAVEWESNGQPENNYKTTPPVLDSDGSFFLYSKLTVDKSRWQQGNVFSCSVMHEALHNRYTQKSLSLSP light: DIVMTQSPLSLPVTPGEPASISCRSSQSLVRSNRNTYLHWYQQKPGQAPRLLIYKVSNRFSGVPDRFSGSGSGTDFTLKISRVEAEDVGVYYCGQGTQVPYTFGQGTKLEIKRTVAAPSVFIFPPSDEQLKSGTASVVCLLNNFYPREAKVQWKVDNALQSGNSQESVTEQDSKDSTYSLSSTLTLSKADYEKHKVYACEVTHQGLSSPVTKSFNRGEC | 0.31 |
| GLS3000 H27dS one-arm antibody (H chain CE115HA000) (antibody, human IgG1, kappa, L234A L235A, N297A, name in Kabat numbering, one-arm antibody) heavy: QVQLVESGGGVVQPGRSLRLSCAASGFTFSNAWMHWVRQAPGKGLEWVAQIKAKSNNYATYYAESVKGRFTISRDDSKNSLYLQMNSLKTEDTAVYYCRYVHYGAYYGVDAWGQGTTVTVSSASTKGPSVFPLAPSSKSTSGGTAALGCLVKDYFPEPVTVSWNSGALTSGVHTFPAVLQSSGLYSLSSVVTVPSSSLGTQTYICNVNHKPSNTKVDKKVEPKSCDKTHTCPPCPAPEAAGGPSVFLFPPKPKDTLMISRTPEVTCVVVDVSHEDPEVKFNWYVDGVEVHNAKTKPREEQYASTYRVVSVLTVLHQDWLNGKEYKCKVSNKALPAPIEKTISKAKGQPREPQVYTLPPSRCELTKNQVSLSCAVKGFYPSDIAVEWESNGQPENNYKTTPPVLDSDGSFFLVSKLTVDKSRWQQGNVFSCSVMHEALHNHYTQKSLSLSPDYKDDDDK EPKSSDKTHTCPPCPAPELLGGPSVFLFPPKPKDTLMISRTPEVTCVVVDVSHEDPEVKFNWYVDGVEVHNAKTKPREEQYNSTYRVVSVLTVLHQDWLNGKEYKCKVSNKALPAPIEKTISKAKGQPREPQVCTLPPSRDELTKNQVSLWCLVKGFYPSDIAVEWESNGQPENNYKTTPPVLDSDGSFFLYSKLTVDKSRWQQGNVFSCSVMHEALHNRYTQKSLSLSP light: DIVMTQSPLSLPVTPGEPASISCRSSQSLVSSNRNTYLHWYQQKPGQAPRLLIYKVSNRFSGVPDRFSGSGSGTDFTLKISRVEAEDVGVYYCGQGTQVPYTFGQGTKLEIKRTVAAPSVFIFPPSDEQLKSGTASVVCLLNNFYPREAKVQWKVDNALQSGNSQESVTEQDSKDSTYSLSSTLTLSKADYEKHKVYACEVTHQGLSSPVTKSFNRGEC | 0.32 |

Now from value to binder:

| ratio of amounts bound (altered form / unaltered GLS3000 antibody) | Binder |
| --- | --- |
| 0.3 | GLS3000 H27dV one-arm antibody (H chain CE115HA000) (antibody, human IgG1, kappa, L234A L235A, N297A, name in Kabat numbering, one-arm antibody) heavy: QVQLVESGGGVVQPGRSLRLSCAASGFTFSNAWMHWVRQAPGKGLEWVAQIKAKSNNYATYYAESVKGRFTISRDDSKNSLYLQMNSLKTEDTAVYYCRYVHYGAYYGVDAWGQGTTVTVSSASTKGPSVFPLAPSSKSTSGGTAALGCLVKDYFPEPVTVSWNSGALTSGVHTFPAVLQSSGLYSLSSVVTVPSSSLGTQTYICNVNHKPSNTKVDKKVEPKSCDKTHTCPPCPAPEAAGGPSVFLFPPKPKDTLMISRTPEVTCVVVDVSHEDPEVKFNWYVDGVEVHNAKTKPREEQYASTYRVVSVLTVLHQDWLNGKEYKCKVSNKALPAPIEKTISKAKGQPREPQVYTLPPSRCELTKNQVSLSCAVKGFYPSDIAVEWESNGQPENNYKTTPPVLDSDGSFFLVSKLTVDKSRWQQGNVFSCSVMHEALHNHYTQKSLSLSPDYKDDDDK EPKSSDKTHTCPPCPAPELLGGPSVFLFPPKPKDTLMISRTPEVTCVVVDVSHEDPEVKFNWYVDGVEVHNAKTKPREEQYNSTYRVVSVLTVLHQDWLNGKEYKCKVSNKALPAPIEKTISKAKGQPREPQVCTLPPSRDELTKNQVSLWCLVKGFYPSDIAVEWESNGQPENNYKTTPPVLDSDGSFFLYSKLTVDKSRWQQGNVFSCSVMHEALHNRYTQKSLSLSP light: DIVMTQSPLSLPVTPGEPASISCRSSQSLVVSNRNTYLHWYQQKPGQAPRLLIYKVSNRFSGVPDRFSGSGSGTDFTLKISRVEAEDVGVYYCGQGTQVPYTFGQGTKLEIKRTVAAPSVFIFPPSDEQLKSGTASVVCLLNNFYPREAKVQWKVDNALQSGNSQESVTEQDSKDSTYSLSSTLTLSKADYEKHKVYACEVTHQGLSSPVTKSFNRGEC |
| 0.29 | GLS3000 H27dT one-arm antibody (H chain CE115HA000) (antibody, human IgG1, kappa, L234A L235A, N297A, name in Kabat numbering, one-arm antibody) heavy: QVQLVESGGGVVQPGRSLRLSCAASGFTFSNAWMHWVRQAPGKGLEWVAQIKAKSNNYATYYAESVKGRFTISRDDSKNSLYLQMNSLKTEDTAVYYCRYVHYGAYYGVDAWGQGTTVTVSSASTKGPSVFPLAPSSKSTSGGTAALGCLVKDYFPEPVTVSWNSGALTSGVHTFPAVLQSSGLYSLSSVVTVPSSSLGTQTYICNVNHKPSNTKVDKKVEPKSCDKTHTCPPCPAPEAAGGPSVFLFPPKPKDTLMISRTPEVTCVVVDVSHEDPEVKFNWYVDGVEVHNAKTKPREEQYASTYRVVSVLTVLHQDWLNGKEYKCKVSNKALPAPIEKTISKAKGQPREPQVYTLPPSRCELTKNQVSLSCAVKGFYPSDIAVEWESNGQPENNYKTTPPVLDSDGSFFLVSKLTVDKSRWQQGNVFSCSVMHEALHNHYTQKSLSLSPDYKDDDDK EPKSSDKTHTCPPCPAPELLGGPSVFLFPPKPKDTLMISRTPEVTCVVVDVSHEDPEVKFNWYVDGVEVHNAKTKPREEQYNSTYRVVSVLTVLHQDWLNGKEYKCKVSNKALPAPIEKTISKAKGQPREPQVCTLPPSRDELTKNQVSLWCLVKGFYPSDIAVEWESNGQPENNYKTTPPVLDSDGSFFLYSKLTVDKSRWQQGNVFSCSVMHEALHNRYTQKSLSLSP light: DIVMTQSPLSLPVTPGEPASISCRSSQSLVTSNRNTYLHWYQQKPGQAPRLLIYKVSNRFSGVPDRFSGSGSGTDFTLKISRVEAEDVGVYYCGQGTQVPYTFGQGTKLEIKRTVAAPSVFIFPPSDEQLKSGTASVVCLLNNFYPREAKVQWKVDNALQSGNSQESVTEQDSKDSTYSLSSTLTLSKADYEKHKVYACEVTHQGLSSPVTKSFNRGEC |
